Laboratory results: patent US20050153923A1, “Targeted drug delivery using EphA2 or EphA4 binding moieties” (priority 2003, published 2005)
“Also recorded” adds a separate entry of the source.

Experiments:
MDA-MB-231 tumor cells = assay: Inhibition of colony formation in soft agar; format: cell-based; conditions: single dose 5 μg/ml purified antibody, FIG. 5
Protocol: A single dose of 5 μg/ml of Eph099B-208.261 (black bar), EA2 (white bar) purified EphA2 antibodies or a negative control antibody, 1A7 (gray bar) were incubated with malignant MDA-MB-231 tumor cells for the indicated time at 37° C. in soft agar. Results are reported as colonies per high-powered field (HPF).
Briefly, cells were suspended in soft agar for 7 days at 37° C. in the presence of purified antibody or control solution (PBS). Antibodies were administered at the time of suspension in both bottom and top agar solutions. Colony formation was scored microscopically using an Olympus CK-3 inverted phase-contrast microscope outfitted with a 40× objective. Clusters containing at least three cells were scored as a positive.

EphA2 [1] = assay: EphA2 tyrosine phosphorylation in MDA-MB-231 cells (IP/Western blot); format: cell-based; conditions: MDA-MB-231 monolayers; single dose 5 μg/ml, 37° C.
Protocol: Monolayers of MDA-MB-231 cells were incubated in the presence of a single dose of 5 μg/ml (A, C) Eph099B-208.261 or (B, D) EA2 for the indicated time at 37° C. Cell lysates were then immunoprecipitated with an EphA2-specific antibody, resolved by SDS-PAGE and subjected to Western blot analysis with a phosphotyrosine-specific antibody (A, B). The membranes were stripped and re-probed with the EphA2-specific antibody used in the immunoprecipitation as a loading control (C, D).
(§1) Monolayers of MDA-MB-231 cells were incubated in the presence of a single dose of 5 μg/ml Eph099B-233.152 at 37° C. Cell lysates were then immunoprecipitated with D7 (an EphA2-specific antibody), resolved by SDS-PAGE and subjected to Western blot analysis with (A) a phosphotyrosine-specific antibody or (B) an EphA2-specific antibody.
EphA2 antibodies promoted tyrosine phosphorylation and degradation of EphA2 in MDA-MB-231 cells. Monolayers of cells were incubated in the presence of EphA2 agonistic antibodies or control at 37° C. […]
(§2) Western blot analyses and immunoprecipitations were performed as described previously (Zantek et al., 1999, Cell Growth Diff. 10: 629-38, which is incorporated by reference in its entirety). […] Antibody binding was detected by enhanced chemiluminescence (Pierce, Rockford, Ill.) and autoradiography (Kodak X-OMAT; Rochester, N.Y.).

EphA2-Fc [2] = biological target: T1, EphA2-Fc (human, UniProt P29317 24-537); assay: competitive ELISA on EphA2-Fc, competitor labeled EA2
T1 construct: extracellular domain; also called fusion protein EphA2-Fc; not shown: human IgG1 constant region

EphA2 [3] = assay: EphA2 degradation / protein level in MDA-MB-231 cells (Western blot); format: cell-based; conditions: MDA-MB-231 monolayers; single dose 5 μg/ml, 37° C.
Protocol: Monolayers of MDA-MB-231 cells were incubated in the presence of a single dose of 5 μg/ml (A, C) Eph099B-208.261 or (B, D) EA2 for the indicated time at 37° C. Cell lysates were then resolved by SDS-PAGE and subjected to Western blot analysis with an EphA2-specific antibody (A, B).
as §1
Monolayers of MDA-MB-231 cells were incubated in the presence of EphA2 agonistic antibodies at 37° C. Cell lysates were then resolved by SDS-PAGE and subjected to Western blot analysis with an EphA2-specific antibody (D7). […] Decreased EphA2 expression is due, in part, to deceased mRNA expression levels in response to EphA2 protein degradation caused by agonistic antibody binding (data not shown).
as §2

cancer cells = assay: Elimination of cancer cell colonies already formed in soft agar (antibody added on third day); format: cell-based; conditions: data not shown
Description: Assay methods were similar to those described above except that antibodies were not added to the cancer cells until the third day of growth in soft agar.

EphA2-Fc [4] = biological target: T2, EphA2-Fc (Homo sapiens, UniProt P29317); assay: BIACORE surface plasmon resonance Koff measurement on immobilized EphA2-Fc; format: binding; conditions: FIG. 15
T2 construct: consisted of the extracellular domain of human EphA2 linked to human immunoglobulin
Description: FIG. 15: Kinetic analysis of EphA2 monoclonal antibodies. BIACORE™ (surface plasmon resonance-based) assays were used to assay the kinetics of EphA2 monoclonal antibody binding to immobilized EphA2-Fc.
The surface plasmon resonance-based BIACORE™ assay was used to measure the Koff rates of the monoclonal antibodies of the invention. IgG present in the hybridoma supernatant was used for measurement. Antibodies with Koff rates of approximately less than 3×10^−3 s^−1 have slow Koff rates. Antibodies with Koff rates of approximately 8×10^−4 s^−1 or less have very slow Koff rates. Antibodies with Koff rates of approximately 9×10^−5 s^−1 or less have ultra slow Koff rates.
EphA2-Fc was immobilize to a surface on a CM5 sensorchip using a standard amine (70 μl of a 1:1 mix of NHS/EDC) coupling chemistry. Briefly, a 400 nM solution of EphA2-Fc in 10 mM NaOAc, pH4, was then injected over the activated surface to a density of 1000-1100 RU's. Unused reactive esters were subsequently “capped” with a 70 μl injection of 1M Et-NH2. Similarly, an activated and “capped” control surface was prepared on the same sensor chip without protein to serve as a reference surface.
A 250 μl injection of each of the EphA2 hybridoma supernatants was made over both the EphA2-Fc and control surfaces, and the binding responses were recorded. These supernatants were used undiluted. […]

A549 lung cancer cells = assay: Tumor growth, A549 cells implanted subcutaneously into athymic mice; format: in vivo; conditions: 6 mg/kg i.p. twice a week for 3 weeks; FIG. 7C
Protocol: Total tumor volume was determined after sacrifice.

[5] = test system: MDA-MB-231 breast cancer cells; assay: Tumor growth and survival, MDA-MB-231 cells implanted subcutaneously into athymic mice; conditions: 6 mg/kg i.p. twice a week for 3 weeks vs PBS or 1A7; FIG. 7B, D
Protocol: MDA-MB-231 cells were implanted subcutaneously into athymic mice. […] Tumor growth was assessed and expressed as a ratio of the tumor volume divided by initial tumor volume (100 mm^3).
(D) MDA-MB-231 breast cancer cells were implanted subcutaneously into athymic mice. […] Total tumor volume was determined after sacrifice.
Briefly, 5×10^6 MDA-MB-231 breast cancer cells were implanted subcutaneously into athymic mice. […] Tumor growth was assessed and expressed as a ratio of the tumor volume divided by initial tumor volume (100 mm^3).
5×10^6 MDA-MB-231 breast cancer cells were implanted orthotopically or subcutaneously and 5×10^6 A549 lung cancer cells were implanted subcutaneously into athymic mice. […] Tumor growth was assessed and expressed either as a ratio of the tumor volume divided by initial tumor volume (100 mm^3) or as total tumor volume.

EphA2-Fc [6] = biological target: T2, EphA2-Fc; assay: Competitive ELISA: inhibition of labeled EA2 binding to EphA2-Fc; conditions: unlabeled antibody, increasing concentrations; FIG. 1
Protocol: The ability of labeled EA2 monoclonal antibody to bind EphA2-Fc was assayed by competitive ELISA in presence of either unlabeled monoclonal antibodies EA2 or Eph099B-208.261. Ratios of unlabeled to labeled antibody used in the assay are indicated on the x-axis.
Supernatants from bulk culture hybridomas were screened for immunoreactivity against EphA2 (Table 9, column 4) using standard molecular biological techniques (e.g., ELISA immunoassay). Supernatants were further screened for the ability to inhibit an EphA2 monoclonal antibody (EA2; ATCC deposit no. PTA-4380; see co-pending U.S. patent application Ser. No. 10/436,783, entitled “EphA2 Agonistic Monoclonal Antibodies and Methods of Use Thereof” filed May 12, 2003) from binding to EphA2. […] Additionally, many of the other antibodies could inhibit EA2 binding to EphA2 as well (Table 9, column 3).

EphA2, sequence (P29317 24-976): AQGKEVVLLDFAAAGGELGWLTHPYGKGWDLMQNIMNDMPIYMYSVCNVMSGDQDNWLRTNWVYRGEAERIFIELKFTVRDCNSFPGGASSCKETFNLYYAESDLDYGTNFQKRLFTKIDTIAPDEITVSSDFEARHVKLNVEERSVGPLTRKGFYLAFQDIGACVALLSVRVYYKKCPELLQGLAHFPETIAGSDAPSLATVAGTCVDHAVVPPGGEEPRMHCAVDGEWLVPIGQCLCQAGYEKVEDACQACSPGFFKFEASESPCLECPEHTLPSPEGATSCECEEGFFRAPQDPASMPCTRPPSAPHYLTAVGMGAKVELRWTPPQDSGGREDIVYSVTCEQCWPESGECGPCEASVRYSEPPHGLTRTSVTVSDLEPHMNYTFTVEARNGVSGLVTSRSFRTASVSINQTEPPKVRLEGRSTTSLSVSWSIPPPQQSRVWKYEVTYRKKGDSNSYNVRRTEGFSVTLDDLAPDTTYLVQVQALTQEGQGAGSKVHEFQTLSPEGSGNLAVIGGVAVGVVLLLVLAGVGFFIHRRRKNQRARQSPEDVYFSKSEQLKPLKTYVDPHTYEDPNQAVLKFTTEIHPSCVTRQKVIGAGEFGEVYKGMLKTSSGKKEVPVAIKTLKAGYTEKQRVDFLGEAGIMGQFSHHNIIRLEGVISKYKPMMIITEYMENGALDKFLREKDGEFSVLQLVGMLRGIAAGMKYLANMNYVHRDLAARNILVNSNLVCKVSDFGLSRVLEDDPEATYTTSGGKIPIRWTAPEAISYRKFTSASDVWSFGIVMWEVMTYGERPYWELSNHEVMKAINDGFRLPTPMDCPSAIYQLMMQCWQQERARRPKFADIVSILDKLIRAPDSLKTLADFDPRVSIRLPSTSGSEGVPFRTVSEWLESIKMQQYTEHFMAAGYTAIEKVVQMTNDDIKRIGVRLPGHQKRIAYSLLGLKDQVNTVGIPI
T2 sequence (P29317 24-537 limits assumed): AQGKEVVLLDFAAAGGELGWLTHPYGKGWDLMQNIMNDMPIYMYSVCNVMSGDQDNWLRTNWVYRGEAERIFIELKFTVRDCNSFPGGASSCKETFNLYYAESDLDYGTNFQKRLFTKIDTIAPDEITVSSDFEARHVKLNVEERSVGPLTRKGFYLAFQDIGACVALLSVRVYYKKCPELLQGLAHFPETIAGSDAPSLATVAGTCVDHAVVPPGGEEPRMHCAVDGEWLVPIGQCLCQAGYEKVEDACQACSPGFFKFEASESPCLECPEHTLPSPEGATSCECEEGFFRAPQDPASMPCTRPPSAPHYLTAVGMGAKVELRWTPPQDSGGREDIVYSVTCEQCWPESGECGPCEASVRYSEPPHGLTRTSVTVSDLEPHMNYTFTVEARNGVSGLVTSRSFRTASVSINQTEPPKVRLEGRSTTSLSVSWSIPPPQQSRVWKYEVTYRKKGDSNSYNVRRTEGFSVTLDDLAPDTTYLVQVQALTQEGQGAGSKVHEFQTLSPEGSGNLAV
T1 sequence (P29317 24-537): as the sequence (P29317 24-537 limits assumed) above

B1: Eph099B-208.261 (antibody, V domains shown)
VH: QVQLQQPGAELVKPGASVKLSCKASGYTFTSYWMHWVKQRPGQGLEWIGMIHPNSGSTNYNEKFKSKATLTVDKSSSTAYMRLSSLTSEDSAVYYCARGGNMVGGGYWGQGTTLTVSS
VL: QIVLTQSPALMSASPGEKVTMTCSASSSVSYMYWYQQKPRSSPKPWIYLTTNLASGVPARFSGSGSGTSYSLTISSMEAEDAATYYCQQWSSNPFTFGSGTKLEIR
notes: Mouse (SJL) hybridoma monoclonal antibody, ATCC PTA-4573
Question: Which results are given for B1?
Answer: Colony growth / formation in soft agar (MDA-MB-231 tumor cells): inhibited colony growth in soft agar; also recorded: inhibit malignant tumor cell growth in soft agar; EphA2 tyrosine phosphorylation (EphA2 [1]): increased EphA2 phosphorylation; also recorded: promote EphA2 tyrosine phosphorylation in MDA-MB-231 cells; binding result (EphA2-Fc [2]): binds; EphA2 protein level (degradation) (EphA2 [3]): decreased EphA2 protein level; also recorded: promote EphA2 degradation in MDA-MB-231 cells; Effect on cancer cell colonies already formed in soft agar (cancer cells): can kill cancer cells already growing in colonies in soft agar while other antibodies can slow or reduce cancer cell colony growth in soft agar; Koff rate compared with EA2 (EphA2-Fc [4]): slower Koff rates than EA2; Tumor growth, A549 implanted subcutaneously (A549 lung cancer cells): inhibited; Tumor growth, MDA-MB-231 implanted subcutaneously [5]: inhibited; also recorded: inhibit tumor cell growth in vivo; Competition with labeled EA2 for binding to EphA2-Fc (EphA2-Fc [6]): could decrease the amount of labeled EA2 binding to EphA2-Fc; also recorded: can compete with EA2 for binding to EphA2
